Target: Candida parapsilosis ATCC 7330 imine reductase CpIM1 (Candida parapsilosis ATCC 7330)
Assay: SEC

For “Candida parapsilosis ATCC 7330 imine reductase CpIM1 (enzyme)”, the stoichiometry N was 2.
